From patent US6387696

What was measured:
[1] = target: recombinant human calcium channel α1B-1α2bβ1-2 on transfected HEK293 cells (human); test: saturation binding of 125I-ω-CgTx GVIA to transiently transfected HEK293 cells
[2] = target: recombinant human calcium channel α1B-1β1-2 on transfected HEK293 cells (human); test: as above
[3] = target: recombinant human calcium channel α1B-1β1-3 on transfected HEK293 cells (human); test: as above
[4] = target: recombinant human calcium channel α1B-2α2bβ1-2 on transfected HEK293 cells (human); test: as above
Sequence of recombinant human calcium channel α1B-2α2bβ1-2 on transfected HEK293 cells (human) (B1AQK5 whole entry, chain 1 of 3): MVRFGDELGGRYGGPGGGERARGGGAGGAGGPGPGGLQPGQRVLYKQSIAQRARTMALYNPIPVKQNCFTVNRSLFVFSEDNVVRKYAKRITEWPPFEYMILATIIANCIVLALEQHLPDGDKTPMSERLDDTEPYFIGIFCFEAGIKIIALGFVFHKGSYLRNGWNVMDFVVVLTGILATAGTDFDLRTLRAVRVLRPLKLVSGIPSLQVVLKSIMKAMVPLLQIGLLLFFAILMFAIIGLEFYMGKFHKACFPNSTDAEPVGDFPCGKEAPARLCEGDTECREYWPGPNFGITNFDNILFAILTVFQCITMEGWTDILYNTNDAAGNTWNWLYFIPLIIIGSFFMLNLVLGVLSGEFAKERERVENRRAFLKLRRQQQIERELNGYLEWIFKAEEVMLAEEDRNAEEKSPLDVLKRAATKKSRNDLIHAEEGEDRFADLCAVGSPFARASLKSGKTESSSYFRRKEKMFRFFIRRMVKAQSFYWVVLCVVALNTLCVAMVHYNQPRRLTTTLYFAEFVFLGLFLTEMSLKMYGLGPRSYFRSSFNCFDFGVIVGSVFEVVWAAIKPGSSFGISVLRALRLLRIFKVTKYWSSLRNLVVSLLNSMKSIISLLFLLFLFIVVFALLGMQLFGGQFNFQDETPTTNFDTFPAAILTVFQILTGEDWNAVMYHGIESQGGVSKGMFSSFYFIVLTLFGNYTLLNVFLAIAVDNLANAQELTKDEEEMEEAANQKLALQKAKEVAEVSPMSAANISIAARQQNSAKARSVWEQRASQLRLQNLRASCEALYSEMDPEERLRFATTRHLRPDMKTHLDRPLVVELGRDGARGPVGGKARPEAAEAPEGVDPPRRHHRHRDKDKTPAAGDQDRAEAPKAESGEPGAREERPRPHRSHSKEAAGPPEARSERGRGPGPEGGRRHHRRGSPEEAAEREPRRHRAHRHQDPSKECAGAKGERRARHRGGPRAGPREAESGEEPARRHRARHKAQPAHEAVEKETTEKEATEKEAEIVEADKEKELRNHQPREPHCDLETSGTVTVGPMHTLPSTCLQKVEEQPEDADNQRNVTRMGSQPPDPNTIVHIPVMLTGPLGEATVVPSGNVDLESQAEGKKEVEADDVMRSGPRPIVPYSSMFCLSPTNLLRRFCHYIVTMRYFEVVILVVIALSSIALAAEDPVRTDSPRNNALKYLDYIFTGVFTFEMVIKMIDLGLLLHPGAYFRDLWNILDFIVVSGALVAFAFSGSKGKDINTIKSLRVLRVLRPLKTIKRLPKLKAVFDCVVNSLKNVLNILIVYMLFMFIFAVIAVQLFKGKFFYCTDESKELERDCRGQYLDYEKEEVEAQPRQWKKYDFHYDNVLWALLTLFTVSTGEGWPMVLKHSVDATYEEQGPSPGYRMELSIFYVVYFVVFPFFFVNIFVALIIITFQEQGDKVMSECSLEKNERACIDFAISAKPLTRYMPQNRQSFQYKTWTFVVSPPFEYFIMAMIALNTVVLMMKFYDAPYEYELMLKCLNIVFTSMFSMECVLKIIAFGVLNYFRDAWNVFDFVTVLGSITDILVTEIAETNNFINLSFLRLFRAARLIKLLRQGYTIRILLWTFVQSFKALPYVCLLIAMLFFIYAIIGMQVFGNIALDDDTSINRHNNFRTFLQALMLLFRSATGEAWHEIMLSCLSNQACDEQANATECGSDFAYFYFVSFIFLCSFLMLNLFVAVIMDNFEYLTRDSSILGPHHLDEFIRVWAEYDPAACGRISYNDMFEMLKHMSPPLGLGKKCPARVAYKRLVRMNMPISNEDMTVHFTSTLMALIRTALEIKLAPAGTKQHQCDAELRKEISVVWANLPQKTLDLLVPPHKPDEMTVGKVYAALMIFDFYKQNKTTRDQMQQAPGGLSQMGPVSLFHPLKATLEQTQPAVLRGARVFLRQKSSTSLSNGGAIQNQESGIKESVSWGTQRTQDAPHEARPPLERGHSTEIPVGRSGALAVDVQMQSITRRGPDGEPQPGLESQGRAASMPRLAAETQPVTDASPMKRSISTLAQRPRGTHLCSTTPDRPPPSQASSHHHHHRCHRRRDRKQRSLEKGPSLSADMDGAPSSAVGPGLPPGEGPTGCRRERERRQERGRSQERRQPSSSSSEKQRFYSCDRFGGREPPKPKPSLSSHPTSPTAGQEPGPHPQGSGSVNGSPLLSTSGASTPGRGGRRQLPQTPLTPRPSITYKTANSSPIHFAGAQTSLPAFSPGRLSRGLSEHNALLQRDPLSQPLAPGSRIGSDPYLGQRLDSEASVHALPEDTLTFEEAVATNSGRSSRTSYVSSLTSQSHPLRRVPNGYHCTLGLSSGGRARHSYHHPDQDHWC
Sequence of recombinant human calcium channel α1B-2α2bβ1-2 on transfected HEK293 cells (human) (P54289 whole entry, chain 2 of 3, further chain): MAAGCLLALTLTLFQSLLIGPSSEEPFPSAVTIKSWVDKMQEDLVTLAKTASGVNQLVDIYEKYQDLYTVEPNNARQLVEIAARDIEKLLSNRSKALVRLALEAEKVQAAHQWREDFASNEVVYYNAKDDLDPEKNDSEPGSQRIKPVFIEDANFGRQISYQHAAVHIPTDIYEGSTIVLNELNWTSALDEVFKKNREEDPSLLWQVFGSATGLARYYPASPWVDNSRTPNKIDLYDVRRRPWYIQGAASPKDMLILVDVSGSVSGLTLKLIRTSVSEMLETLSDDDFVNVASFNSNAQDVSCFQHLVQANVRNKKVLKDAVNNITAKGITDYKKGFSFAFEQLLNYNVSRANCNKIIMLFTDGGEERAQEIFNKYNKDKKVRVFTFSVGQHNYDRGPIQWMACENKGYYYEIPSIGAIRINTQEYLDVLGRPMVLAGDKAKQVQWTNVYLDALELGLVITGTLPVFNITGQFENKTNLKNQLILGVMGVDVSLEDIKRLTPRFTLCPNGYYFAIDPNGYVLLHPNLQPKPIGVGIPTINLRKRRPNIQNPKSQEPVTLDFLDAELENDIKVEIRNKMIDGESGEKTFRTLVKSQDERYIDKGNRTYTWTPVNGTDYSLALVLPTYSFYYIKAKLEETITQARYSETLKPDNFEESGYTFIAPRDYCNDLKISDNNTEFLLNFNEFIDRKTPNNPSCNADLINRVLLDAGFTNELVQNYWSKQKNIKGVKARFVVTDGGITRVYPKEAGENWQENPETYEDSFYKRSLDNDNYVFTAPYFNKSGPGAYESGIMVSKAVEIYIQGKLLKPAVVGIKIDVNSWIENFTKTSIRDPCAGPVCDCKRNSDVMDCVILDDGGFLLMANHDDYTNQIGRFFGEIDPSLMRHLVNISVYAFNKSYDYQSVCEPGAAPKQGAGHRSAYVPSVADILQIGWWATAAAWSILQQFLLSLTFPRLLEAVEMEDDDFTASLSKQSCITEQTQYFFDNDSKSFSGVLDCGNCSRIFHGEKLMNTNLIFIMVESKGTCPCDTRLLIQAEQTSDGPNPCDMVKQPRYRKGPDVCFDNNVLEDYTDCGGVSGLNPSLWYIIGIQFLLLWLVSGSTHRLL
Sequence of recombinant human calcium channel α1B-2α2bβ1-2 on transfected HEK293 cells (human) (A8K114 whole entry, chain 3 of 3, further chain): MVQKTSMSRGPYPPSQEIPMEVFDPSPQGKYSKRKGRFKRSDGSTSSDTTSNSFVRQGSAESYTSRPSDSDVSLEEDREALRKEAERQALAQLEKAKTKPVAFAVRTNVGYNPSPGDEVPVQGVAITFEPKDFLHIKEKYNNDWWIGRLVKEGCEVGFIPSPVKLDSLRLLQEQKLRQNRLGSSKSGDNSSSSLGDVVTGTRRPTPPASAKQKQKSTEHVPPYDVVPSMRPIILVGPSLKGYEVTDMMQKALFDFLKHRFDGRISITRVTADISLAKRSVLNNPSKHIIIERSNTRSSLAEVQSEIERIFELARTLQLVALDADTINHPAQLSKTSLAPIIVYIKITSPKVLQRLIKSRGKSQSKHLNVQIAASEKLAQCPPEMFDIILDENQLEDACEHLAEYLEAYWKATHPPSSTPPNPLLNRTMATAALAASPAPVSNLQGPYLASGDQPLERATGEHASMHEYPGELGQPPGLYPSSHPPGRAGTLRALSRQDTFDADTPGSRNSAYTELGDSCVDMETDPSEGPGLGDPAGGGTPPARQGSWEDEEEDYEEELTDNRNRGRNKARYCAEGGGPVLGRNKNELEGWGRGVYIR

[5] = target: recombinant human calcium channel α1B-2α2bβ1-3 on transfected HEK293 cells (human); test: as above
Sequence of recombinant human calcium channel α1B-2α2bβ1-3 on transfected HEK293 cells (human) (B1AQK5 whole entry, chain 1 of 3): as the sequence (B1AQK5 whole entry, chain 1 of 3) above
Sequence of recombinant human calcium channel α1B-2α2bβ1-3 on transfected HEK293 cells (human) (P54289 whole entry, chain 2 of 3, further chain): as the sequence (P54289 whole entry, chain 2 of 3, further chain) above
Sequence of recombinant human calcium channel α1B-2α2bβ1-3 on transfected HEK293 cells (human) (A8K114 whole entry, chain 3 of 3, further chain): as the sequence (A8K114 whole entry, chain 3 of 3, further chain) above

[6] = target: recombinant human calcium channel α1B-2β1-2 on transfected HEK293 cells (human); test: as above
[7] = target: recombinant human calcium channel α1B-2β1-3 on transfected HEK293 cells (human); test: as above
[8] = target: recombinant human calcium channel α1B-1α2bβ1-2 on transfected HEK293 cells (human); test: ω-CgTx binding to transiently transfected HEK293 cells (8, 5 and 2 µg plasmids)
[9] = target: human calcium channel α1B-1 subunit alone on transfected HEK293 cells (human)
Sequence of human calcium channel α1B-1 subunit alone on transfected HEK293 cells (human) (B1AQK5 whole entry): as the sequence (B1AQK5 whole entry, chain 1 of 3) above

[10] = target: T1, recombinant human calcium channel α1B-1α2b on transfected HEK293 cells (human)
T1 sequence (B1AQK5 whole entry, chain 1 of 2): as the sequence (B1AQK5 whole entry, chain 1 of 3) above
T1 sequence (P54289 whole entry, chain 2 of 2, further chain): as the sequence (P54289 whole entry, chain 2 of 3, further chain) above

[11] = target: T1, recombinant human calcium channel …; test: saturation binding of 125I-ω-CgTx GVIA to transiently transfected HEK293 cells

Molecule: 125I-ω-CgTx GVIA (from UniProt P01522 46-72) (peptide)
- Bmax (sites/cell) [1]: 45300 sites/cell
- Kd [1]: 0.0549 nM
- fold change of binding sites per cell (Bmax) against α1B-2α2bβ1-2 [1]: 2.5 fold
- fold change of surface receptor density (Bmax) against α1B-1β1-2 [1]: 8 fold
- Bmax (sites/cell) [2]: 5760 sites/cell
- Kd [2]: 0.0179 nM
- fold change of surface binding (Bmax) against α1B-1 alone [2]: 8 fold
- Bmax (sites/cell) [3]: 8730 sites/cell
- Kd [3]: 0.0179 nM
- fold change of surface binding (Bmax) against α1B-1 alone [3]: 10 fold
- Bmax (sites/cell) [4]: 19400 sites/cell
- Kd [4]: 0.053 nM
- fold change of surface receptor density (Bmax) against α1B-2β1-2 [4]: 9 fold
- Bmax (sites/cell) [5]: 37700 sites/cell
- Kd [5]: 0.0443 nM
- fold change of binding capacity (Bmax) against α1B-2α2bβ1-2 [5]: 2 fold
- fold change of surface receptor density (Bmax) against α1B-2β1-3 [5]: 13 fold
- Bmax (sites/cell) [6]: 2130 sites/cell
- Kd [6]: 0.0164 nM
- Bmax (sites/cell) [7]: 2940 sites/cell
- Kd [7]: 0.0222 nM

Molecule: ω-CgTx (from UniProt P01522 46-72) (peptide)
- Kd [8]: 0.0546 nM
- binding capacity (Bmax) (sites per cell) [8]: 28700

Molecule: CKSPGSSCSPTSYNCCRSCNPYTKRCY (modifications not checked) [125I-ω-CgTx GVIA, P01522 46-72]
- Bmax (sites/cell) [9]: 757 sites/cell
- Kd [9]: 0.0317 nM
- Bmax (sites/cell) [10]: 2260 sites/cell
- Kd [10]: 0.0846 nM
- fold change of binding capacity (Bmax) against α1B-1 alone [11]: 3 fold
